# T1: CEACAM5 (R&D Systems, 4128-CM-050) (human, UniProt P06731 35-685)
# T1 construct: Immobilised on the ELISA plate; also called human CEACAM5
# T1 sequence (looked up): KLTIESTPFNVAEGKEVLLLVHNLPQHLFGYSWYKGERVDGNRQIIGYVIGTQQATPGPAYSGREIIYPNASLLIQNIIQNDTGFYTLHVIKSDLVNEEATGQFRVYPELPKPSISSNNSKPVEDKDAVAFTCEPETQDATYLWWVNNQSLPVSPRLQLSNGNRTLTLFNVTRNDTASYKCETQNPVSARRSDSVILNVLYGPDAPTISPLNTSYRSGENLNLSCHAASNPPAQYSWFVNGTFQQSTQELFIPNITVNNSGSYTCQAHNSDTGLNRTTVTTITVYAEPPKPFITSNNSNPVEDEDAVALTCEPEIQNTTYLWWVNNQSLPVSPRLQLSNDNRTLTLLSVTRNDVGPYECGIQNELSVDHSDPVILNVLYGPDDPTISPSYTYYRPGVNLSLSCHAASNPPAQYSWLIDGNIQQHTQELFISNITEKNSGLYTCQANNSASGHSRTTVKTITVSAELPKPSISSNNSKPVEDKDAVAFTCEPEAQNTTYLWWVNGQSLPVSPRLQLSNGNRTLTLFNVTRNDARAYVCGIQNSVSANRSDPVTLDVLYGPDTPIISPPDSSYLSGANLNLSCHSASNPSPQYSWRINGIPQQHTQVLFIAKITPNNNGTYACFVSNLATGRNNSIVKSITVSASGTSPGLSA
# Molecular target: T1, CEACAM5 (R&D Systems, 4128-CM-050)
# Test: ELISA on immobilised CEACAM5, 4-parameter fit, duplicate
# Procedure: Each anti-human CEACAM5 antibody Fab fragment conjugate prepared in Example 2 was subjected to ELISA to evaluate the binding activity thereof to CEACAM5. In the present test, a phosphate buffer (Nacalai Tesque Inc., 0.1 mol/L-Phosphate Buffer Solution (pH 7.2)) prepared to 10 mM by diluting 10-fold with distilled water was used as a solvent for an antigen immobilization liquid, and 20×PBS/Tween 20 Buffer (Thermo Fisher Scientific Inc., 28352) diluted 20-fold with distilled water was used as a wash liquid. In addition, for bovine serum albumin (BSA) used in the present test, 30% Bovine Serum Albumin solution (Sigma-Aldrich, Inc., A9576-50ML) was added in an appropriate proportion for use. CEACAM5 (R&D Systems, 4128-CM-050) was diluted with a 10 mM phosphate buffer (pH 7.2) to 0.1 μg/mL, and added to a Nunc MaxiSorp White 384 plate (Nunc, 4603272) at 30 μL per well, and the plate was incubated overnight at 4° C. for immobilization. The CEACAM5 immobilization liquid was removed by reverse centrifugation, and then blocking was carried out by adding a PBS/Tween 20 buffer containing 5.0% BSA. Thereafter, the blocking solution was removed by reverse centrifugation, a solution of each CEACAM5 antibody Fab² fragment conjugate described above or a Fab² fragment having no labeling portion (PB009-01) as a control at about 10000 ng/mL was diluted in 14 steps by 3-fold dilution using a PBS/Tween 20 buffer containing 1.0% BSA, and 30 μL was added per well and incubated at room temperature for 60 minutes. The plate was washed 3 times with a PBS/Tween 20 buffer, and Horseradish Peroxidase (HRP)-labeled goat anti-human IgG (H+L chain) antibody (MBL Life Sciences, 206) diluted 1000-fold using a PBS/Tween 20 buffer containing 5.0% BSA was added at 30 μL per well and incubated at room temperature for 30 minutes. The plate was washed 3 times with a PBS/Tween 20 buffer, and ECL Prime Western Blotting DETECTION Reagent (GE Healthcare, RPN2232) as a substrate was added at 30 μL per well. The substrate was incubated at room temperature for 15 minutes, and then a signal value thereof was measured using an Envision counter (PerkinElmer, Inc.).
# The test for each antibody was carried out in duplicate, and an EC₅₀ value was calculated using a 4-parameter logistic curve model.
row,EC50 [pM],Binder
1,290,"(Y-S1-X)p-Fab^2 with Y Gd/DOTA, S1 spacer (p), X -Met-Gly-Lys*-Z2(#N)- (Fab, V domains shown, labeling may sit on this chain; sites not stated; labeling portion (MW 1079) on amino groups of the Fab, sites and chain not stated; 1-3 per Fab by MS, also called Ex-No 57; conjugate 57) VH: EVQLVESGGGLVQPGGSLRLSCAASGFNIRDTYMHWVRQAPGKGLEWVARIDPANGNSRYVPKFQGRFTISADTSRNTAYLQMNSLRAEDTAVYYCAPFGYYVSDYAMAYWGQGTLVTVSS VL: DIQLTQSPSSLSASVGDRVTITCRAGESVDIFGVGFLHWYQQKPGKAPKLLIYRASNLESGIPSRFSGSGSRTDFTLTISSLQPEDFATYYCQQTNEDPYTFGQGTKVEIKR"
2,210,"[Gd/4arm-DOTA-CH2-(1,4-Ph)-NH-C(═S)]p-Fab^2 (Fab, V domains shown, labeling may sit on this chain; sites not stated; labeling portion (MW 706) on amino groups of the Fab, sites and chain not stated; 1 per Fab by MS, also called Ex-No 48; conjugate 48) VH: EVQLVESGGGLVQPGGSLRLSCAASGFNIRDTYMHWVRQAPGKGLEWVARIDPANGNSRYVPKFQGRFTISADTSRNTAYLQMNSLRAEDTAVYYCAPFGYYVSDYAMAYWGQGTLVTVSS VL: DIQLTQSPSSLSASVGDRVTITCRAGESVDIFGVGFLHWYQQKPGKAPKLLIYRASNLESGIPSRFSGSGSRTDFTLTISSLQPEDFATYYCQQTNEDPYTFGQGTKVEIKR"
3,210,"(Y-S1-X)p-Fab^2 with Y Gd/DOTA, S1 spacer (m), X -Met-Gly-Lys*-Z2(#N)- (Fab, V domains shown, labeling may sit on this chain; sites not stated; labeling portion (MW 1107) on amino groups of the Fab, sites and chain not stated; 1 per Fab by MS, also called Ex-No 42; conjugate 42) VH: EVQLVESGGGLVQPGGSLRLSCAASGFNIRDTYMHWVRQAPGKGLEWVARIDPANGNSRYVPKFQGRFTISADTSRNTAYLQMNSLRAEDTAVYYCAPFGYYVSDYAMAYWGQGTLVTVSS VL: DIQLTQSPSSLSASVGDRVTITCRAGESVDIFGVGFLHWYQQKPGKAPKLLIYRASNLESGIPSRFSGSGSRTDFTLTISSLQPEDFATYYCQQTNEDPYTFGQGTKVEIKR"
4,220,"(Y-S1-X)p-Fab^2 with Y Gd/DOTA, S1 spacer (k), X -Met-Gly-Lys*-Z2(#N)- (Fab, V domains shown, labeling may sit on this chain; sites not stated; labeling portion (MW 1296) on amino groups of the Fab, sites and chain not stated; 1-2 per Fab by MS, also called Ex-No 46; conjugate 46) VH: EVQLVESGGGLVQPGGSLRLSCAASGFNIRDTYMHWVRQAPGKGLEWVARIDPANGNSRYVPKFQGRFTISADTSRNTAYLQMNSLRAEDTAVYYCAPFGYYVSDYAMAYWGQGTLVTVSS VL: DIQLTQSPSSLSASVGDRVTITCRAGESVDIFGVGFLHWYQQKPGKAPKLLIYRASNLESGIPSRFSGSGSRTDFTLTISSLQPEDFATYYCQQTNEDPYTFGQGTKVEIKR"
5,230,"(Y-S1-X)p-Fab^2 with Y Gd/4arm-DOTA, S1 -CH2-(1,4-Ph)-NH-C(═S)-, X -Met-Gly-Lys*-Z2(#N)- (Fab, V domains shown, labeling may sit on this chain; sites not stated; labeling portion (MW 1121) on amino groups of the Fab, sites and chain not stated; 1 per Fab by MS, also called Ex-No 54; conjugate 54) VH: EVQLVESGGGLVQPGGSLRLSCAASGFNIRDTYMHWVRQAPGKGLEWVARIDPANGNSRYVPKFQGRFTISADTSRNTAYLQMNSLRAEDTAVYYCAPFGYYVSDYAMAYWGQGTLVTVSS VL: DIQLTQSPSSLSASVGDRVTITCRAGESVDIFGVGFLHWYQQKPGKAPKLLIYRASNLESGIPSRFSGSGSRTDFTLTISSLQPEDFATYYCQQTNEDPYTFGQGTKVEIKR"
6,230,"(Y-S1-X)p-Fab^2 with Y Gd/DOTA, S1 spacer (i), X -Met -Gly-Lys*-Z2(#N)- (Fab, V domains shown, labeling may sit on this chain; sites not stated; labeling portion (MW 1296) on amino groups of the Fab, sites and chain not stated; 1-2 per Fab by MS, also called Ex-No 45; conjugate 45) VH: EVQLVESGGGLVQPGGSLRLSCAASGFNIRDTYMHWVRQAPGKGLEWVARIDPANGNSRYVPKFQGRFTISADTSRNTAYLQMNSLRAEDTAVYYCAPFGYYVSDYAMAYWGQGTLVTVSS VL: DIQLTQSPSSLSASVGDRVTITCRAGESVDIFGVGFLHWYQQKPGKAPKLLIYRASNLESGIPSRFSGSGSRTDFTLTISSLQPEDFATYYCQQTNEDPYTFGQGTKVEIKR"
7,160,"(Y-S1-X)p-Fab^2 with Y Gd/DOTA, S1 - (bond), X -Gly-Lys*-C(═S)-NH-(1,4-Ph)-NH-C(═S)- (Fab, V domains shown, labeling may sit on this chain; sites not stated; labeling portion (MW 937) on amino groups of the Fab, sites and chain not stated; 1-2 per Fab by MS, also called Ex-No 1; conjugate 1) VH: EVQLVESGGGLVQPGGSLRLSCAASGFNIRDTYMHWVRQAPGKGLEWVARIDPANGNSRYVPKFQGRFTISADTSRNTAYLQMNSLRAEDTAVYYCAPFGYYVSDYAMAYWGQGTLVTVSS VL: DIQLTQSPSSLSASVGDRVTITCRAGESVDIFGVGFLHWYQQKPGKAPKLLIYRASNLESGIPSRFSGSGSRTDFTLTISSLQPEDFATYYCQQTNEDPYTFGQGTKVEIKR"
8,250,"[Gd/DOTA]p-Fab^2 (Fab, V domains shown, labeling may sit on this chain; sites not stated; [Gd/DOTA] (MW 542) on amino groups of the Fab, sites and chain not stated; 1-2 per Fab by MS, also called Ex-No 47; conjugate 47) VH: EVQLVESGGGLVQPGGSLRLSCAASGFNIRDTYMHWVRQAPGKGLEWVARIDPANGNSRYVPKFQGRFTISADTSRNTAYLQMNSLRAEDTAVYYCAPFGYYVSDYAMAYWGQGTLVTVSS VL: DIQLTQSPSSLSASVGDRVTITCRAGESVDIFGVGFLHWYQQKPGKAPKLLIYRASNLESGIPSRFSGSGSRTDFTLTISSLQPEDFATYYCQQTNEDPYTFGQGTKVEIKR"
